Measurements from the supplement of paper PMC10567573.

Experiment: protein stability index of a GFP-peptide fusion (GPS, HEK-293T) (PSI 1-6); higher = more stable
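Further: lentivirally expressed fusions sorted by FACS into six bins by GFP to DsRed ratio, PSI derived from sequencing read proportions per bin multiplied by bin number.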

FRCPTCRHEVIMDRHGVYGLQRNL
protein stability index (parent: IOH45956_13, c terminus: a fixed tail appended): 1.95

QRITQEQEKKLSFIEALIQQYQEQ
protein stability index (parent: IOH45956_39, c terminus: a fixed tail appended): 2.31

QEKKLSFIEALIQQYQEQLDKSTK
protein stability index (parent: IOH45956_40, c terminus: a fixed tail appended): 2.57

YVQEKRDGLKRRQQLEEELLRAKI [RAD54B WT]
protein stability index (parent: IOH45968_20, c terminus: a fixed tail appended): 1.89

KASGRFGLLQGTSAETSGGLLICL [SEPHS2 WT]
protein stability index (parent: IOH46138_60, c terminus: a fixed tail appended): 2.7

SLARLQQLLFVIFLLLYLFTLGTN [OR10K2 WT]
protein stability index (parent: IOH46300_4, c terminus: a fixed tail appended): 2.15

FSEPSFITESYQTLHPISSEELLS
protein stability index (parent: IOH46473_30, c terminus: a fixed tail appended): 1.94

YVRDRADLNKDKPVIPAAALAGYT
protein stability index (parent: IOH46473_52, c terminus: a fixed tail appended): 2.15

LNLAMVYRYCCKLNKKLKSYSLSR
protein stability index (parent: IOH46617_10, c terminus: a fixed tail appended): 2.15

GPHPKSKIENGYPLHAPEAYFPYF
protein stability index (parent: IOH46617_33, c terminus: a fixed tail appended): 2.25

LWVQGDIFRSKLKNRPSSEGSINK
protein stability index (parent: IOH46617_56, c terminus: a fixed tail appended): 2.28

YGGGLGGGFGGGFAGGFVDFGACD
protein stability index (parent: IOH51951_13, c terminus: a fixed tail appended): 1.83

KTIEELRDKILTATIENNRVILEI
protein stability index (parent: IOH51951_27, c terminus: a fixed tail appended): 2.97

TPGIDLTRVLAEMREQYEAMAERN
protein stability index (parent: IOH51951_45, c terminus: a fixed tail appended): 3.68

TSSASVTTTSNASGRRTSDVRRP
protein stability index (parent: IOH51951_76, c terminus: native): 2.45

SPGHSSAGQEGEDTLRRRLLAPEA
protein stability index (parent: IOH51997_28, c terminus: a fixed tail appended): 4.18

AGQEGEDTLRRRLLAPEAGSHPQQ
protein stability index (parent: IOH51997_29, c terminus: a fixed tail appended): 2.33

HHVADAYTSSQKVSPIQIDGAGRT
protein stability index (parent: IOH51997_53, c terminus: a fixed tail appended): 3.46

YTSSQKVSPIQIDGAGRTWQDSDT
protein stability index (parent: IOH51997_54, c terminus: a fixed tail appended): 3.33

DGAGRTWQDSDTVKLLVDLELSYG
protein stability index (parent: IOH51997_56, c terminus: a fixed tail appended): 1.82

YKYCDHENAAFKDVALVLTVLLEE
protein stability index (parent: IOH51997_64, c terminus: a fixed tail appended): 2.27

FASLRPSEPFLTPYLLGPDKNLTE
protein stability index (parent: IOH52104_8, c terminus: a fixed tail appended): 2

IYPVWTYSYLVLLFPVFLATDYLR
protein stability index (parent: IOH52104_13, c terminus: a fixed tail appended): 2.89

FHHIPSTCQRVNGIKVQNGGIVTD
protein stability index (parent: IOH52104_37, c terminus: a fixed tail appended): 1.8

YVIGGRNETGYLSSVECYNLETNE
protein stability index (parent: IOH52486_72, c terminus: a fixed tail appended): 1.96

NETGYLSSVECYNLETNEWRYVSS
protein stability index (parent: IOH52486_73, c terminus: a fixed tail appended): 2.24

WLYCYDPVMDVWARKQDMNTKRAI
protein stability index (parent: IOH52486_82, c terminus: a fixed tail appended): 1.93

CAVLDDSIYLVGGYSWSMGAYKSS
protein stability index (parent: IOH52486_95, c terminus: a fixed tail appended): 2.2

MAGCRGSLCCCCRWCCCCGERETR
protein stability index (parent: IOH52910_1, c terminus: a fixed tail appended): 1.87

TGLVGLFVDFFVRLFTQLKFGVVQ
protein stability index (parent: IOH52910_16, c terminus: a fixed tail appended): 2.3

FQSISLRKIQFNFPYFRSDRDKRD
protein stability index (parent: IOH52910_37, c terminus: a fixed tail appended): 1.87

ILRSQLVTLLVRGVCYSESQSSAS
protein stability index (parent: IOH52910_125, c terminus: a fixed tail appended): 2.67

VGEIVGIITRHNLTYEFLQARLRQ
protein stability index (parent: IOH52910_141, c terminus: a fixed tail appended): 2.41

FATASAAVPVSTSKPSSDLLDLQP
protein stability index (parent: IOH52952_56, c terminus: a fixed tail appended): 3.71

FSTDAFSSPPQGASPVPESSLTAD
protein stability index (parent: IOH52952_99, c terminus: a fixed tail appended): 3.2

FAAPSPATTASPAKVDSSGVIDLF
protein stability index (parent: IOH52952_104, c terminus: a fixed tail appended): 2.35

FGGSFMAPSPSPVTPAQNNLLQPN
protein stability index (parent: IOH52952_113, c terminus: a fixed tail appended): 1.96

FAQPMMRPPFGAAAVPGTQLSPSP
protein stability index (parent: IOH52952_144, c terminus: a fixed tail appended): 3.08

IRLVDDAFGKICHMVSDGSWVVRV
protein stability index (parent: IOH53018_47, c terminus: a fixed tail appended): 3.03

YSSGEFSSGRKWGDDAPKEEVDTG
protein stability index (parent: IOH53018_58, c terminus: a fixed tail appended): 2.34

AKQIMEETYKMEFMYSGVENKQVV
protein stability index (parent: IOH53018_117, c terminus: a fixed tail appended): 1.69

TIIEPAGESDNPLRFTSGLVVALD
protein stability index (parent: IOH53018_138, c terminus: a fixed tail appended): 2.83

SERPLEDLRLRLDHLGWVARGTGS [RTN2 WT]
protein stability index (parent: IOH53506_23, c terminus: a fixed tail appended): 2.32

QEGLLDRCVSFQARFAEKEELMLV
protein stability index (parent: IOH53646_21, c terminus: a fixed tail appended): 1.78

DLMETTQYMNEGELRVLADTYDSV
protein stability index (parent: IOH53646_26, c terminus: a fixed tail appended): 2.05

QYMNEGELRVLADTYDSVYLHPNS
protein stability index (parent: IOH53646_27, c terminus: a fixed tail appended): 1.87

KMKTRELHRESSNFDSIYICPSTF
protein stability index (parent: IOH53646_93, c terminus: a fixed tail appended): 2.14

ACAQLATGAACRLVEAVLSGEVLN
protein stability index (parent: IOH53646_97, c terminus: a fixed tail appended): 2.94

YVHHQALLDVKNIAHQNKFGEDMP
protein stability index (parent: IOH53646_199, c terminus: a fixed tail appended): 2

LLKHPNIVRLHDSISEEGFHYLVF
protein stability index (parent: IOH54032_12, c terminus: a fixed tail appended): 2.28

IVRLHDSISEEGFHYLVFDLVTGG
protein stability index (parent: IOH54032_13, c terminus: a fixed tail appended): 2.65

VKGCSMYVALFPCNECAKLIIQAG [DCTD WT]
protein stability index (parent: IOH54732_19, c terminus: a fixed tail appended): 2.63

YHIYVALEEEIERNKESPVFAPVY [HMOX1 WT]
protein stability index (parent: IOH54938_10, c terminus: a fixed tail appended): 2.02
